Source: paper PMC8376927, “14-3-3 proteins inactivate DAPK2 by promoting its dimerization and protecting key regulatory phosphosites” (Communications Biology, 2021)
Non-standard residues stand in square brackets, D forms with d. No end group written: not given here. *: point of attachment. 5FAM = O=C1OC2(c3ccc(O)cc3Oc3cc(O)ccc32)c2ccc(C(=O)*)cc21; pT = C[C@@H](OP(=O)(O)O)[C@H](N)C(=O)O

B2: Human 14-3-3γΔC (residues 1-235 lacking the C-terminal 13-residue-long flexible tail) (domain or fragment, UniProt P61981 1-235, looked up)
chain: MVDREQLVQKARLAEQAERYDDMAAAMKNVTELNEPLSNEERNLLSVAYKNVVGARRSSWRVISSIEQKTSADGNEKKIEMVRAYREKIEKELEAVCQDVLSLLDNYLIKNCSETQYESKVFYLKMKGDYYRYLAEVATGEKRATVVESSEKAYSEAHEISKEHMQPTHPIRLGLALNYSVFYYEIQNAPEQACHLAKTAFDDAIAELDTLNEDSYKDSTLIMQLLRDNLTLWTS
notes: 14-3-3 protein gamma, human, residues 1-235 (C-terminally truncated)
B3: DAPK2_RNTD, full-length human DAPK2 mutant with the C terminus S367STS370 changed to R367NTD370, autophosphorylated (enzyme)
chain: MFQASMRSPNMEPFKQQKVEDFYDIGEELGSGQFAIVKKCREKSTGLEYAAKFIKKRQSRASRRGVSREEIEREVSILRQVLHHNVITLHDVYENRTDVVLILELVSGGELFDFLAQKESLSEEEATSFIKQILDGVNYLHTKKIAHFDLKPENIMLLDKNIPIPHIKLIDFGLAHEIEDGVEFKNIFGTPEFVAPEIVNYEPLGLEADMWSIGVITYILLSGASPFLGDTKQETLANITAVSYDFDEEFFSQTSELAKDFIRKLLVKETRKRLTIQEALRHPWITPVDNQQAMVRRESVVNLENFRKQYVRRRWKLSFSIVSLCNHLTRSLMKKVHLRPDEDLRNCESDTEEDIARRKALHPRRRRNTD
modifications: phosphothreonine at 369 (stoichiometrically autophosphorylated); autophosphorylated Ser318 (the peptide with Ser318 carried one or two phosphoresidues)
notes: Death-associated protein kinase 2 (DAPK2, DRP-1), human, full length; Cloned into modified pRSFDuet-1 (BamHI, NotI)

Columns and labels:
[1] = target: B2; experiment: fluorescence polarisation; 14-3-3γ (160 µM and binary dilution series) incubated 1 h with 50 nM FAM-labelled peptide; 20 mM HEPES-NaOH pH 7.4, 150 mM NaCl, 0.1% Tween 20, 0.1% BSA; one-site-binding model; apparent KD; conditions: both partners purified
[2] = target: the molecule itself; experiment: crystal structure; binary complex 14-3-3γΔC:ctDAPK2-pT369 mixed 1:1.2; hanging drop, 290 K; space group R3; 2.7 Å
[3] = target: T1, dansyl-labeled rat calmodulin (DANS-CaM) (rat, UniProt P0DP29 1-149, dansyl label (dansyl chloride; site not stated)); experiment: time-resolved fluorescence intensity and anisotropy decay; 25 μM DANS-CaM, 30 μM DAPK2, with or without 100 μM 14-3-3γ; 23 °C; 20 mM HEPES-NaOH pH 7.5, 150 mM NaCl, 1 mM CaCl2, 1 mM TCEP; conditions: both partners purified
T1 construct: calmodulin, rat; Measured with 1 mM CaCl2; also called DANS-Ca^2+/CaM; dansyl-Ca^2+/CaM

[4] = target: T2, rat calmodulin protein (Ca2+/CaM) (rat, UniProt P0DP29 1-149); experiment: AUC; sedimentation velocity, 50 μM mixture of DAPK2_RNTD with Ca2+/CaM (1:1 molar ratio) compared with 50 μM DAPK2_RNTD alone; 20 °C; conditions: both partners purified
T2 construct: calmodulin, rat; also called rat CaM

[5] = target: B3; experiment: AUC; sedimentation velocity, 10-molar excess of DAPK2_RNTD over 14-3-3γ; 20 °C; conditions: both partners purified
[6] = target: B3; experiment: AUC; sedimentation velocity, 10-molar excess of 14-3-3γ over DAPK2_RNTD; 20 °C; conditions: both partners purified
[7] = target: B3; experiment: AUC; sedimentation velocity, mixtures of 6 μM DAPK2_RNTD and 0.6-60 μM 14-3-3γ; 20 °C; 50 mM HEPES-NaOH pH 7.5, 150 mM NaCl, 1 mM TCEP; conditions: both partners purified

B1: FAM-ctDAPK2-pT369 peptide (FAM-RRRSSpTS) (peptide)
peptide: 5FAM-RRRSS[pT]S
notes: source: synthetic peptide (Pepscan Presto BV)
B1 was tested, and the Kd [1] was 161 ± 7 nM.

B2: binds [2].

B3: binds [3]; binds [4].

B4: DAPK2 WT, full-length human DAPK2, autophosphorylated (enzyme)
chain: MFQASMRSPNMEPFKQQKVEDFYDIGEELGSGQFAIVKKCREKSTGLEYAAKFIKKRQSRASRRGVSREEIEREVSILRQVLHHNVITLHDVYENRTDVVLILELVSGGELFDFLAQKESLSEEEATSFIKQILDGVNYLHTKKIAHFDLKPENIMLLDKNIPIPHIKLIDFGLAHEIEDGVEFKNIFGTPEFVAPEIVNYEPLGLEADMWSIGVITYILLSGASPFLGDTKQETLANITAVSYDFDEEFFSQTSELAKDFIRKLLVKETRKRLTIQEALRHPWITPVDNQQAMVRRESVVNLENFRKQYVRRRWKLSFSIVSLCNHLTRSLMKKVHLRPDEDLRNCESDTEEDIARRKALHPRRRSSTS
modifications: autophosphorylated at Ser318 and at two additional sites, at least, within the C-terminal 14-3-3-binding motif
notes: Death-associated protein kinase 2 (DAPK2, DRP-1), human, full length
B4: binds [3].

B5: DAPK2_RNTD S318A (enzyme)
chain: MFQASMRSPNMEPFKQQKVEDFYDIGEELGSGQFAIVKKCREKSTGLEYAAKFIKKRQSRASRRGVSREEIEREVSILRQVLHHNVITLHDVYENRTDVVLILELVSGGELFDFLAQKESLSEEEATSFIKQILDGVNYLHTKKIAHFDLKPENIMLLDKNIPIPHIKLIDFGLAHEIEDGVEFKNIFGTPEFVAPEIVNYEPLGLEADMWSIGVITYILLSGASPFLGDTKQETLANITAVSYDFDEEFFSQTSELAKDFIRKLLVKETRKRLTIQEALRHPWITPVDNQQAMVRRESVVNLENFRKQYVRRRWKLAFSIVSLCNHLTRSLMKKVHLRPDEDLRNCESDTEEDIARRKALHPRRRRNTD
notes: Death-associated protein kinase 2 (DAPK2), human, full length, made from DAPK2_RNTD
B5: binds [3].

B6: Human 14-3-3γ WT (natural protein, UniProt P61981 1-247, looked up)
chain: MVDREQLVQKARLAEQAERYDDMAAAMKNVTELNEPLSNEERNLLSVAYKNVVGARRSSWRVISSIEQKTSADGNEKKIEMVRAYREKIEKELEAVCQDVLSLLDNYLIKNCSETQYESKVFYLKMKGDYYRYLAEVATGEKRATVVESSEKAYSEAHEISKEHMQPTHPIRLGLALNYSVFYYEIQNAPEQACHLAKTAFDDAIAELDTLNEDSYKDSTLIMQLLRDNLTLWTSDQQDDDGGEGNN
notes: 14-3-3 protein gamma, human, wild type; it speaks of the protein as a dimer
B6 was tested, and the “stoichiometry N” value [5] was 1 14-3-3γ per DAPK2 (printed 2:2), the “stoichiometry N” value [6] was 2 14-3-3γ per DAPK2 (printed 2:1) and the Kd [7] was under 100 nM.
